Experimental data from US20210238298A1 (ALLIGATOR BIOSCIENCE, published 2021).
Blank lines part the entries; values can stand above or below the binder they belong to.

How the values were obtained:
CTLA-4 (BMS, Orencia) [1] = target: T1, CTLA-4 (BMS, Orencia) (human, UniProt P16410 38-152); experiment: cell-based or functional assay
CTLA-4 (BMS, Orencia) [2] = target: T1, CTLA-4 (BMS, Orencia); experiment: cell-based or functional assay; remark: listed apart in the source
CD40 (Ancell) = target: T2, CD40 (Ancell) (UniProt P25942 21-193); experiment: ELISA, coated CD40-Fc
T2 construct: also called CD40-Fc (Ancell #504-820); not shown: Fc part, not described
T2 sequence (P25942 21-193 limits assumed): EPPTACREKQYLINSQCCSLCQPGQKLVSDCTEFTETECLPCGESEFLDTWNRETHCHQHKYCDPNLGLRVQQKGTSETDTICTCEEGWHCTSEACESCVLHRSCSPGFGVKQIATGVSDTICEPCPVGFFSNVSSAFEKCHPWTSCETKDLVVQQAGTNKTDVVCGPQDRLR
Description: (§1) ELISA plates (Greiner #655074) were coated with 50 μl/well of recombinant human OX40 (R&D #1493-CD), CD40-Fc (Ancell #504-820) or CD137 (R&D #838-4B) diluted to a final concentration of 0.5 μg/ml in PBS for 1 h at 37° C. or overnight at 4° C. Plates were washed with PBS+0.05% TWEEN20 (PBST), followed by block with PBST+1% bovine serum albumin (BSA). Antibody samples were prepared as serial 1/10 dilutions from 10-0.01 μg/ml in PBST+1% BSA and incubated for 1h in room temperature, followed by detection using a horse radish peroxidase-conjugated anti-human kappa light chain antibody (AbD Serotec #STAR127P) and developed using SuperSignal ELISA Pico Chemiluminescent substrate (Pierce ThermoScientific #37069).

[3] = target: CD137 on primary human CD8+ T cells (human, UniProt Q07011 24-255); experiment: cell-based or functional assay
CD137 on primary human CD8+ T cells, sequence (Q07011 24-255 limits assumed): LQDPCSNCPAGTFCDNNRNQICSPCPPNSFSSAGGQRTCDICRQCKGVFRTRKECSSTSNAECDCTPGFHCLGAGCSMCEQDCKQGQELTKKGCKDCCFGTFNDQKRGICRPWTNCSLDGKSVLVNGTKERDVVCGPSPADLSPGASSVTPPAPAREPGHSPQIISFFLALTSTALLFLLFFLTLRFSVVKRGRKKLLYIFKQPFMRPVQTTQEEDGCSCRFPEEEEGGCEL

[4] = target: T3, recombinant human CD137-Fc (R&D #838-4B) (human, UniProt Q07011 24-186); experiment: SPR (summary table)
T3 construct: Bought; also called Human CD137 (R&D systems); CD137 (R&D Systems); not shown: Fc part, not described
T3 sequence (Q07011 24-186 limits assumed): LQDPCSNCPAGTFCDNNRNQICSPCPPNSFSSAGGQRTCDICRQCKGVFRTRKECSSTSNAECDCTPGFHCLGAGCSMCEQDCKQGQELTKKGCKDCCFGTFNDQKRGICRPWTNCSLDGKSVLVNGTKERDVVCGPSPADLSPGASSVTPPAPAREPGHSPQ

[5] = target: T3, recombinant human CD137-Fc (R&D #838-4B); experiment: ELISA, coated CD137-Fc; mean
[6] = target: T3, recombinant human CD137-Fc (R&D #838-4B); experiment: SPR (summary table); column headed ka (1/s)
[7] = target: T3, recombinant human CD137-Fc (R&D #838-4B); experiment: SPR (Biacore), immobilised human CD137, bivalent antibody in flow
Description: Human CD137 (R&D systems) was immobilized to the Biacore™ sensorchip, CM5, using conventional amine coupling. The tested antibody and control (serially diluted ½ 10-0.63 nM) were analyzed for binding in HBS-P (GE, #BR-1003-68) at a flow rate of […]. The association was followed for 5 minutes and the dissociation for 15 minutes. Regeneration was performed twice using 10 mM Glycine pH 1.7 for 30 seconds. The kinetic parameters and the affinity constants were calculated using 1:1 Langmuir model.

[8] = target: T4, extracellular part of human CD137 fused to the transmembrane and intracellular part of hCD40, on CHO cells (human, UniProt P25942 194-277, limits assumed); experiment: flow cytometry, CHO cells; 95% confidence interval
T4 construct: domain: transmembrane and intracellular part; also called CHO-huCD137; human CD137 over-expressed on CHO cells
T4 sequence (P25942 other isoform, or with tags, fused parts or gaps limits assumed): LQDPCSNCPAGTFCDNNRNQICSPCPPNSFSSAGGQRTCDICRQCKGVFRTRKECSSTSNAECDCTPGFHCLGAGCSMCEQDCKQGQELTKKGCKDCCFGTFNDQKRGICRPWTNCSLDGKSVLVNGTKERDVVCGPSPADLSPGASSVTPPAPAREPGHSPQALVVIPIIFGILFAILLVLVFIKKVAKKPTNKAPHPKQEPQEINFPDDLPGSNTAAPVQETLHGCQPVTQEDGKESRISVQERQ
Description: (§2) Binding and EC50 to human and cynomolgus (Macaca fascicularis) CD137 was determined using flow cytometry of CHO cells transfected with human CD137, cynomolgus CD137 or empty vector. The extracellular part of human or cynomolgus CD137 was fused to the transmembrane and intracellular part of human CD40 and cloned into pcDNA3.0. The vector was subsequently stably transfected into CHO cells. […] CD137-transfected and empty vector-transfected cells were incubated with CD137 antibodies for at least 1h at 4° C. to saturate the binding. In order to minimize antibody internalization, 0.05% sodium azide was used in the incubation buffer and all work was performed on ice. […] Directly after staining the cells were fixed with a paraformaldehyde solution (10× concentrate BD CellFIX, BD biosciences #340181). Cells were analyzed by flow cytometry using FACSVerse (BD Biosciences). The median fluorescence intensity (MFI) for each sample was determined and the dose response data was analysed using Graph Pad Prism.
(§3) MFI data was normalized for each antibody, where 0% is defined as the lowest value and 100% is the highest value in the dose titration for each antibody.

[9] = target: T5, extracellular part of cynomolgus CD137 fused to the transmembrane and intracellular part of hCD40, on CHO … (cynomolgus (Macaca fascicularis); human, UniProt A9YYE7 24-186; P25942 194-277); experiment: flow cytometry, CHO cells; 95% confidence interval
T5 construct: extracellular domain;domain: transmembrane and intracellular part; also called CHO-cyCD137; cyno CD137
T5 sequence (P25942 other isoform, or with tags, fused parts or gaps): as the sequence (P25942 other isoform, or with tags, fused parts or gaps limits assumed) above, with P4L, N19S, R50K, T66I, P67S, F69Y, G75E, V149A counted along it
Description: as §2, §3

[10] = target: T6, CD137 chimera 1550 (1407): human CD137 with mouse domains 1, 2A and 2B (aa 24-86), on FreeStyle 293-F cells (human; mouse, UniProt P20334 24-85); experiment: flow cytometry, 293-F transfectants
T6 construct: domain: 1, 2A and 2B
T6 sequence (P20334 other isoform, or with tags, fused parts or gaps mutant limits assumed): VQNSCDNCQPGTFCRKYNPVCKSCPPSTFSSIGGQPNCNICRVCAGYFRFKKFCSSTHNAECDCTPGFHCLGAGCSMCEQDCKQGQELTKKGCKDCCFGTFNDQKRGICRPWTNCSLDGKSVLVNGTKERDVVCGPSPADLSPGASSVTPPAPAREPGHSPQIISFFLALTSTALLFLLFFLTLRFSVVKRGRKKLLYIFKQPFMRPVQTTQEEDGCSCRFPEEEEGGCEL

[11] = target: T7, CD137 chimera 1552 (1409): human CD137 with mouse domains 2B, 3A and 3B (aa 64-118), on FreeStyle 293-F cells (human; mouse, UniProt P20334 63-117); experiment: flow cytometry, 293-F transfectants
T7 construct: domain: 2B, 3A and 3B
T7 sequence (P20334 other isoform, or with tags, fused parts or gaps mutant limits assumed): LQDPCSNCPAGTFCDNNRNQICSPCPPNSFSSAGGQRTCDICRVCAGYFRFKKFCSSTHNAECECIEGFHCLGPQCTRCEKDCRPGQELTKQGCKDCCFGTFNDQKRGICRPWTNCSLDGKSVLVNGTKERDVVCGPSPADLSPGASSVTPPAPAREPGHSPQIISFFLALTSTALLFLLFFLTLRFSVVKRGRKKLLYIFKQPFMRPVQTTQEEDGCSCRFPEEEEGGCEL

[12] = target: construct 1030: full length human CD137, on FreeStyle 293-F cells (human, UniProt Q07011 24-255); experiment: flow cytometry, 293-F transfectants
construct 1030: full length human CD137, on FreeStyle 293-F cells, sequence (Q07011 24-255 limits assumed): as the sequence (Q07011 24-255 limits assumed) above

[13] = target: T8, CD137 chimera 1553 (1410): human CD137 with mouse domains 3A, 3B and 4A (aa 87-133), on FreeStyle 293-F cells (human; mouse, UniProt P20334 86-133); experiment: flow cytometry, 293-F transfectants
T8 construct: domain: 3A, 3B and 4A
T8 sequence (P20334 other isoform, or with tags, fused parts or gaps mutant limits assumed): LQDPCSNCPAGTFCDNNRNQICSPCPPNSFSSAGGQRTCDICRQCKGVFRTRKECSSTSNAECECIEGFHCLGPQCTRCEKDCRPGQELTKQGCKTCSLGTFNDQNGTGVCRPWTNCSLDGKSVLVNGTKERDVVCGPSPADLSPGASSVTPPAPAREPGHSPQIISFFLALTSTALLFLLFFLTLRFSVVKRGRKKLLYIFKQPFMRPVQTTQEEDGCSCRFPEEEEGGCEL

[14] = target: T9, CD137 chimera 1551 (1408): human CD137 with mouse domains 2A, 2B and 3A (aa 47-96), on FreeStyle 293-F cells (human; mouse, UniProt P20334 46-95); experiment: flow cytometry, 293-F transfectants
T9 construct: domain: 2A, 2B and 3A
T9 sequence (P20334 other isoform, or with tags, fused parts or gaps mutant limits assumed): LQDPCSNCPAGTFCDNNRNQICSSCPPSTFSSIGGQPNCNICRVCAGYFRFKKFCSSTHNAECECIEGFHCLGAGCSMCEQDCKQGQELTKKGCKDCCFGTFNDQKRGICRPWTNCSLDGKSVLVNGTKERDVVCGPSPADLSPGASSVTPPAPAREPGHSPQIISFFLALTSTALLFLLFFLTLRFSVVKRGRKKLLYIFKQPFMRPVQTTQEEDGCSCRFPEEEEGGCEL

[15] = target: T10, CD137 chimera 1555 (1412): human CD137 with mouse domains 1 and 4B and region of unknown function (aa 24-46 … (human; mouse, UniProt P20334 24-45; P20334 139-185); experiment: flow cytometry, 293-F transfectants
T10 construct: domain: 1;domain: 4B and region of unknown function
T10 sequence (P20334 other isoform, or with tags, fused parts or gaps mutant limits assumed): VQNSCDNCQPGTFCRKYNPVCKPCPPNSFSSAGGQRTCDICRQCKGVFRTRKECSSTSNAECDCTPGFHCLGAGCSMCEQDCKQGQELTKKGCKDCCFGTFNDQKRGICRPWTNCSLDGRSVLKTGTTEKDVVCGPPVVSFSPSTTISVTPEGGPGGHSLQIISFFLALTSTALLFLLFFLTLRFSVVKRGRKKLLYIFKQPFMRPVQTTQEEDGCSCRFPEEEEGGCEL

[16] = target: T11, CD137 chimera 1554 (1411): human CD137 with mouse domains 3B, 4A and 4B (aa 97-159), on FreeStyle 293-F cells (human; mouse, UniProt P20334 96-159); experiment: flow cytometry, 293-F transfectants
T11 construct: domain: 3B, 4A and 4B
T11 sequence (P20334 other isoform, or with tags, fused parts or gaps mutant limits assumed): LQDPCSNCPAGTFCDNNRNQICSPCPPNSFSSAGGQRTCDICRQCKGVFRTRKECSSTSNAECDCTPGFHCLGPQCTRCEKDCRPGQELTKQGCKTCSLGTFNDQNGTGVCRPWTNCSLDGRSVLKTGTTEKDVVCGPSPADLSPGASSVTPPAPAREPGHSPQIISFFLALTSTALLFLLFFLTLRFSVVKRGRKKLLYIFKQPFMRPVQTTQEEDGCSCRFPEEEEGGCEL

[17] = target: T4, extracellular part of human CD137 fused …; experiment: flow cytometry, CHO transfectants (summary table)
[18] = target: T5, extracellular part of cynomolgus CD137 …; experiment: flow cytometry, CHO cells; against human CD137
Description: as §2, §3

[19] = target: T12, Human OX40 (R&D systems, #3358_OX) (human, UniProt P43489 29-216); experiment: ELISA, coated recombinant human OX40
T12 construct: Bought; Several catalogue numbers are given for it; also called human OX40 (R&D Systems, 3388-OX); OX40-Fc (R&D systems, #3358_OX); not shown: Fc part
T12 sequence: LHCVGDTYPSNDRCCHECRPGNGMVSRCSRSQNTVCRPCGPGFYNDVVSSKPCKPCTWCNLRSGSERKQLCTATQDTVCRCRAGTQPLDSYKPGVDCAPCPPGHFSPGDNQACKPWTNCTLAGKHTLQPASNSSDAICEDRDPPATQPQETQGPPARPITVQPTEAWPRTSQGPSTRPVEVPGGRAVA
Description: as §1

[20] = target: T12, Human OX40 (R&D systems, #3358_OX); experiment: dual ELISA: OX40-Fc coated, bispecific antibody in dilutions, biotinylated CD137-Fc (1 ug/ml), HRP-streptavidin; the signal needs both bindings at once
[21] = target: T13, CTLA4-Fc (Fitzgerald, #30R-CD152) (human, UniProt P16410 38-152); experiment: inhibition ELISA; the best IC50 of Table 1.2 is that of 1040
T13 construct: Bought; also called human CTLA-4 (Fitzgerald); biotinylated-CTLA4; not shown: Fc part of the bought fusion, not described
T13 sequence (P16410 38-152 limits assumed): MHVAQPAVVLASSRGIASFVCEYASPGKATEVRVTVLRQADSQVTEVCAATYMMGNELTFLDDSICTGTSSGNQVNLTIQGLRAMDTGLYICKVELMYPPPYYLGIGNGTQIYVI
Description: The sample (CD86 mutant or wild type protein; serially diluted ¼ from 30000 to 0.3 ng/ml) was incubated with biotinylated-CTLA4 (Fitzgerald, #30R-CD152) in room temperature 1 h, the mixture was then added to the blocked wells in the ELISA plate. Detection was performed with Streptavidin-HRP (Pierce, #21126) and the plates were subsequently developed using SuperSignal Pico Chemiluminescent substrate (Thermo Scientific, #37069) and detected with Envision reader (Perkin Elmer). […] Kd binding ratio=[Kd for CD28]÷[Kd for CTLA-4].

[22] = target: T13, CTLA4-Fc (Fitzgerald, #30R-CD152); experiment: SPR (Biacore), immobilised CTLA4-Fc
Description: Either CTLA4-Fc (Fitzgerald, #30R-CD152) or CD28-Fc (R&D Systems, 342-CD) was immobilized to the Biacore™ sensor chip, CM5, using conventional amine coupling. The CD86 mutant molecules and controls (serially diluted ½ 100-1.5 nM) were analyzed for binding in HBS-P (GE, BR-1003-68) at a flow rate of […]. The association was followed for 3 minutes and the dissociation for 10 minutes. Regeneration was performed twice using 5 mM NaOH for 30 seconds. The kinetic parameters and the affinity constants were calculated using BIAevaluation 4.1 software (Table 1.3).

T1 sequence (P16410 38-152 limits assumed): as above

B3: 1526/1527-1204/1205 (bispecific antibody, human IgG1, kappa)
heavy chain fused to scFv (VH1-Hc-linker-VH2/VL2): not shown
light chain (VL1-Lc): DIQMTQSPSSLSASVGDRVTITCRASQSISSYLNWYQQKPGKAPKLLIYAASSLQSGVPSRFSGSGSGTDFTLTISSLQPEDFATYYCQQYGSDSLLTFGQGTKLEIKRTVAAPSVFIFPPSDEQLKSGTASVVCLLNNFYPREAKVQWKVDNALQSGNSQESVTEQDSKDSTYSLSSTLTLSKADYEKHKVYACEVTHQGLSSPVTKSFNRGEC
notes: OX40 x CD137 bispecific antibody, scFv-IgG format
binding result [20]: binds

B4: CD86 mutant 1040 (ligand)
chain: APLKIQAYFNETADLPCQFANSQNLSLSELVVFWQDQENLVLNEVYLGKERFDSVDSKYMGRTSFDSDSWTLRLHNLQIKDKGRYQCIIHHKKPTGMINIHQMNSELSVLA
notes: Variant of the CD86 extracellular domain
fold improvement of IC50 compared to wild type [21]: > 100 fold
Kd [22]: 3 nM
koff [22]: 0.0032 s⁻¹
kon [22]: 1e+06 M⁻¹ s⁻¹

Next, values leading:

Fold change in IL-2 level induced by bispecific molecule compared to the corresponding combination of the monospecific molecules at 1.5 nM (CTLA-4 (BMS, Orencia) [1]): 4.7 fold
Mean IL-2 level (pg/ml) induced at 1.5 nM (CTLA-4 (BMS, Orencia) [2]): 2580 pg/mL
B1: bispecific molecule 1170/1263 (OX40 x CTLA-4) (bispecific antibody, human IgG1, kappa)
heavy: not shown
light: DIQMTQSPSSLSASVGDRVTITCRASQSISSYLNWYQQKPGKAPKLLIYAASSLQSGVPSRFSGSGSGTDFTLTISSLQPEDFATYYCQQGHGSYPHTFGQGTKLEIKRTVAAPSVFIFPPSDEQLKSGTASVVCLLNNFYPREAKVQWKVDNALQSGNSQESVTEQDSKDSTYSLSSTLTLSKADYEKHKVYACEVTHQGLSSPVTKSFNRGECSGGGGSGGGGSAPLKIQAYFNETADLPCQFANSQNLSLSELVVFWQDQENLVLNEVYLGKERFDSVDSKYMGRTSFDSDSWTLRLHNLQIKDKGRYQCIIHHKKPTGMINIHQMNSELSVLA

binding result (CD40 (Ancell)): no binding (tested: 10 µg/ml)
Max IFN-γ [3]: 111000 pg/mL
Mean IFN-γ [3]: 33600 pg/mL
Min IFN-γ [3]: 7380 pg/mL
Kd [4]: 0.1 nM
kon [4]: 1e+06 M⁻¹ s⁻¹
EC50 [5]: 0.35 nM
koff [6]: 0.0001 s⁻¹
Kd [7]: 0.107 nM
koff [7]: 0.00011 s⁻¹
kon [7]: 1.02e+06 M⁻¹ s⁻¹
EC50 [8]: 0.11 to 0.19 µg/mL
EC50 [9]: 0.086 to 0.15 µg/mL
relative binding (MFI sample/isotype control, normalised to full-length human CD137) [10]: 0.11
relative binding (MFI sample/isotype control, normalised to full-length human CD137) [11]: 1.2
relative binding (MFI sample/isotype control, normalised to full-length human CD137) [12]: 1
relative binding (MFI sample/isotype control, normalised to full-length human CD137) [13]: 1.24
relative binding (MFI sample/isotype control, normalised to full-length human CD137) [14]: 0.67
relative binding (MFI sample/isotype control, normalised to full-length human CD137) [15]: 0.12
relative binding (MFI sample/isotype control, normalised to full-length human CD137) [16]: 1.01
EC50 [17]: 0.11 to 0.19 µg/mL
Ratio, cyno:human (EC50) [18]: 0.77
binding result [19]: no binding (tested: 10 µg/ml)
B2: anti-CD137 antibody 1618/1619 (antibody, IgG1, V domains shown)
VH: EVQLLESGGGLVQPGGSLRLSCAASGFTFSYGSMYWVRQAPGKGLEWVSSISSGSGSTYYADSVKGRFTISRDNSKNTLYLQMNSLRAEDTAVYYCARSSYYGSYYSIDYWGQGTLVTVSS
VL: DIQMTQSPSSLSASVGDRVTITCRASQSISSYLNWYQQKPGKAPKLLIYAASSLQSGVPSRFSGSGSGTDFTLTISSLQPEDFATYYCQQYYDNLPTFGQGTKLEIK
notes: Produced as IgG; also called 1618-bio
